Bounds are passed on as bounds.

In this assay the target is T1, Recombinant human CXCL16 (rhCXCL16) protein (Homo sapiens, UniProt Q9H2A7).
T1 sequence (Q9H2A7 30-118): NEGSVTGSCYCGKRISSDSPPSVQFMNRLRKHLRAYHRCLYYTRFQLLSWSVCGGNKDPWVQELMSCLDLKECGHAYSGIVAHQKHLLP
Kind of assay: bio-light interferometry (ForteBio) binding analysis. To be noted: antibody captured on biosensor, rhCXCL16 100 nM, 25° C.; ND = signal was not detectable. Here is the method: The binding characteristics of 25 CXCL16 antibodies were analyzed using the bio-light interferometry (ForteBio). All antibodies were diluted in freshly prepared running buffer. Antibodies were immobilized onto the surface of a series of biosensors using the capture methods at 0.3 μg/mL. Recombinant human CXCL16 (rhCXCL16) protein (100 nM) was passed over the surface to generate a binding response for 10 minutes. Binding data for the antibody and antigen interactions were collected at 25° C. on the biosensors. Then, the running buffer was passed for 10 minutes to dissociate them. The association constant (ka) and the dissociation constant (ka) were observed, and the equilibrium binding constant (KD) was calculated. […] R2: The value indicating how well the fit and experimental data correlate; X^2: The measure of error between the experimental data and fitted line.
(In general: Biolayer interferometry detects binding as a change in optical thickness at a sensor tip.)

B1: HC0LC0: chimeric antibody that binds to human CXCL16; rat variable regions (CDRs SEQ ID NOs 12-17), heavy SEQ ID NO: 32, light SEQ ID NO: 34 (antibody)
heavy: ACCMGWTLVFLFLLSVTAGVHSAVQLVESGGGLVQPKESLKISCAASGFTFSNAVMNWVRQAPGKGLEWVARIRTKPNNYATFYADSVKGRFTFSRDDSKSMVYLQMDNLKTEDTAMYYCTAWTTEGIYWGQGTLVTVSSAETTAPSVYPLAPGTALKSNSMVTLGCLVKGYFPEPVTVTWNSGALSSGVHTFPAVLQSGLYTLTSSVTVPSSTWSSQAVTCNVAHPASSTKVDKKIVPRECNPCGCTGSEVSSVFIFPPKTKDVLTITLTPKVTCVVVDISQNDPEVRFSWFIDDVEVHTAQTHAPEKQSNSTLRSVSELPIVHRDWLNGKTFKCKVNSGAFPAPIEKSISKPEGTPRGPQVYTMAPPKEEMTQSQVSITCMVKGFYPPDIYTEWKMNGQPQENYKNTPPTMDTDGSYFLYSKLNVKKETWQQGNTFTCSVLHEGLHNHHTEKSLSHSPGK
light: ACCMVSSAQFLGLLLLCFQGTRCDIVMTQSPSSLAVSAGETVTINCKSSQSLLYSGNQKNYLAWYQQKPGQSPKLLIYWASTRQSGVPDRFIGSGSGTDFTLTISSVQAEDLAIYYCQQYYDTPWTFGGGTKLELKRADAAPTVSIFPPSTEQLATGGASVVCLMNNFYPRDISVKWKIDGTERRDGVLDSVTDQDSKDSTYSMSSTLSLTKADYESHNLYTCEVVHKTSSSPVVKSFNRNEC
As for B1, the kd is less than 1e-07 s⁻¹.
